# Substitutions are numbered along the chain they refer to.
# B1: 12A21 (antibody, V domains shown)
# VH: SQHLVQSGTQVKKPGASVRVSCQASGYTFTNYILHWWRQAPGQGLEWMGLIKPVFGAVNYARQFQGRIQLTRDIYREIAFLDLSGLRSDDTAVYYCARDESGDDLKWHLHPWGQGTQVIVSP
# VL: DIQMTQSPSSLSASVGDRVTINCQAGQGIGSSLNWYQKKPGRAPKLLVHGASNLQRGVPSRFSGSGFHTTFTLTISSLQPDDVATYFCAVFQWFGPGTKVDIKR
# notes: also called 12A21HC; 12a21kc
# B2: 8ANC195 (antibody, V domains shown)
# VH: QIHLVQSGTEVKKPGSSVTVSCKAYGVNTFGLYAVNWVRQAPGQSLEYIGQIWRWKSSASHHFRGRVLISAVDLTGSSPPISSLEIKNLTSDDTAVYFCTTTSTYDKWSGLHHDGVMAFSSWGQGTLISVSA
# VL: DIQMTQSPSTLAASIGGTVRVSCRASQSITGNWVAWYQQRPGKAPRLLIYRGAALLGGVPSRFSGSAAGTDFTLTIGNLQAEDFGTFYCQQYDTYPGTFGQGTKVEVKR
# notes: also called 8ANC195HC; 8ANC195KC
# B3: 3BNC55 (antibody, V domains shown)
# VH: QVQLVQSGTAVKRPGASVRVSCQASGYTFTDYFIYWWRQAPGQGLEWLGWINPLTSQPSYPSRFQGRLTLTRDTFDEMLYMDLRGLRSDDTGIYFCARRHSDYCDFDIWGSGTQIIVSS
# VL: DIQMTQSPSSLSASVGDKVTITCQTSAGYLNWYQQRRGRAPKLLMYDGSRLVTGVPSRFSGRRWGTQYNLTIGSLQPEDIATYYCQVYEFFGPGTRLDLKS
# notes: also called 3BNC55HC; 3BNC55KC
# B4: 3BNC66 (antibody, V domains shown)
# VH: QVQLVQSGAALKKPGASLRISCQTYGYKFTDHLIYWWRQAPGQGLEWIGWIKPETGQPSYSYRFQGRVSLTRDTFEEIAFMDLRGLRSDDTAIYFCARRHTDYCVFDVWGSGSQIIVSS
# VL: B3 VL with K18T, S26N, A27K, R50K, F59L, S101R
# notes: also called 3BNC66HC; 3bnc66kc
# B5: 3BNC156 (antibody, V domains shown)
# VH: B4 VH with A79V, T101S, V105D, S111G, I115V
# VL: B3 VL with K18T, S26N, A27K, R36K, R50K, F59L, S101R
# notes: also called 3BNC156HC; 3bnc156kc
# B6: NIH45-46 (antibody, V domains shown)
# VH: QVRLSQSGGQMKKPGESMRLSCRASGYEFLNCPINWIRLAPGRRPEWMGWLKPRGGAVNYARKFQGRVTMTRDVYSDTAFLELRSLTSDDTAVYFCTRGKYCTARDYYNWDFEH
# VL: EIVLTQSPATLSLSPGETAIISCRTSQSGSLAWYQQRPGQAPRLVIYSGSTRAAGIPDRFSGSRWGADYNLSISNLESGDFGVYYCQQYEFFG
# B7: 1NC9 (antibody, V domains shown)
# VH: QVRLVQSGAQLKKPGASVTVSCEASGYNFVNYIINWVRQTPGRSFEWVGMIDPRRGRPWSAQKFQGRLTLTRDIDSEKLYMHLSGLRGDDTAVYYCARQDSDFHDGHGHTLRGMFDSWGQGSPVTVSS
# VL: QVLSVSGTPGQRVIISCSGTSSNVGGNLVSWYQHLPGAAPRLLIHRDDQRPSGVPDRFSGSKSGNSASLVISGLRSDDEADYFCAAYDSTFSLPVFGGGTRLTVLS
# notes: also called LSSNEC9HC; LSSNEC9LC
# B8: 12A12 (antibody, V domains shown)
# VH: SQQLVQSGTQVKKPGASVRISCQASGYSFTDYVLHWWRQAPGQGLEWMGWIKPVYGARNYARRFQGRINFDRDIYREIAFMDLSGLRSDDTALYFCARDGSGDDTSWHLDPWGQGTLVIVSA
# VL: DIQMTQSPSSLSASVGDRVTITCQAGQGIGSSLQWYQQKPGKAPKLLVHGASNLHRGVPSRFSGSGFHTTFSLTISGLQRDDFATYFCAVLEFFGPGTKVEIKR
# notes: also called 12A12HC; 12a12kc
# B9: 1B2530 (antibody, V domains shown)
# VH: QVRLEQSGAAMRKPGASVTLSCQASGYNFVKYIIHWVRQKPGLGFEWVGMIDPYRGRPWSAHKFQGRLSLSRDTSMEILYMTLTSLKSDDTATYFCARAEAASDSHSRPIMFDHWGQGSRVTVSS
# VL: QSALTQPPSASGAPGQRVTISCSGGPSNVGGNYVYWYRQFPGTAPTLLILRDDQRPSGVPDRFSASKSGNSASLAISGLRPDDEGFYFCATYDSDGSIRLFGGGTALTVLS
# notes: also called LSSB2530HC; LSSB2530LC
# B10: 3BNC60 (antibody, V domains shown)
# VH: QVHLSQSGAAVTKPGASVRVSCEASGYKISDHFIHWWRQAPGQGLQWVGWINPKTGQPNNPRQFQGRVSLTRQASWDFDTYSFYMDLKAVRSDDTAIYFCARQRSDFWDFDVWGSGTQVTVSSASTKG
# VL: DIQMTQSPSSLSARVGDTVTITCQANGYLNWYQQRRGKAPKLLIYDGSKLERGVPARFSGRRWGQEYNLTINNLQPEDVATYFCQVYEFIVPGTRLDLKRTVAA
# notes: also called 3BNC60HC; 3BNC60KC
# B11: 3BNC117 (antibody, V domains shown)
# VH: B10 VH with H3Q, S5L, K28N, S30R, H32Y, Q73H, Y81F, V90L, I97V, F107Y
# VL: DIQMTQSPSSLSASVGDTVTITCQANGYLNWYQQRRGKAPKLLIYDGSKLERGVPSRFSGRRWGQEYNLTINNLQPEDIATYFCQVYEFVVPGTRLDLKRTVAAPSVFIFPPSD
# notes: also called 3BNC117HC; 3bnc117kc
# B12: 8ANC131 (antibody, V domains shown)
# VH: QGQLVQSGGGLKKPGTSVTISCLASEYTFNEFVIHWIRQAPGQGPLWLGLIKRSGRLMTAYNFQDRLRLRRDRSTGTVFMELRGLRPDDTAVYYCARDGLGEVAPDYRYGIDVWGQGSTVIVTA
# VL: EIVLTQSPATLSLSPGERATLSCRASQGLNFVVWYQQKRGQAPRLLIHAPSGRAPGVPDRFSARGSGTEFSLVISSVEPDDFAIYYCQEYSSTPYNFGPGTRVDRKR
# notes: also called 8ANC131HC; 8ANC131KC
# B13: 8ANC134 (antibody, V domains shown)
# VH: B12 VH with L11V, L46V, A60S, N62K, R68S, P87L, D106A, R108L, V113A, A124S
# VL: B12 VL with R39G, A49G, S51T, G52D, I84L
# notes: also called 8ANC134HC; 8ANC134KC
# Biological target: 2CC-core
# Experiment: SPR, antigen on chip, IgG injected
Binder,Kd,koff,kon
B1,1.81 nM,0.00033 s⁻¹,182000 M⁻¹ s⁻¹
B2,54.7 nM,0.00132 s⁻¹,24100 M⁻¹ s⁻¹
B3,25.7 nM,–,–
B4,33.6 nM,0.00133 s⁻¹,39600 M⁻¹ s⁻¹
B5,81.2 nM,0.00153 s⁻¹,18800 M⁻¹ s⁻¹
B6,4.4 nM,0.000494 s⁻¹,112000 M⁻¹ s⁻¹
B7,4.61 nM,0.000236 s⁻¹,51100 M⁻¹ s⁻¹
B8,0.0269 nM,1.7e-06 s⁻¹,63300 M⁻¹ s⁻¹
B9,5.9 nM,0.000402 s⁻¹,68300 M⁻¹ s⁻¹
B10,54.5 nM,0.00164 s⁻¹,30200 M⁻¹ s⁻¹
B11,36.8 nM,–,–
B12,66.1 nM,0.00323 s⁻¹,48800 M⁻¹ s⁻¹
B13,46.1 nM,0.000957 s⁻¹,20800 M⁻¹ s⁻¹
